B1: Keratin, type I cytoskeletal 18 (Homo sapiens), P05783 (parent)
chain: MSFTTRSTFSTNYRSLGSVQAPSYGARPVSSAASVYAGAGGSGSRISVSRSTSFRGGMGSGGLATGIAGGLAGMGGIQNEKETMQSLNDRLASYLDRVRSLETENRRLESKIREHLEKKGPQVRDWSHYFKIIEDLRAQIFANTVDNARIVLQIDNARLAADDFRVKYETELAMRQSVENDIHGLRKVIDDTNITRLQLETEIEALKEELLFMKKNHEEEVKGLQAQIASSGLTVEVDAPKSQDLAKIMADIRAQYDELARKNREELDKYWSQQIEESTTVVTTQSAEVGAAETTLTELRRTVQSLEIDLDSMRNLKASLENSLREVEARYALQMEQLNGILLHLESELAQTRAEGQRQAQEYEALLNIKVKLEAEIATYRRLLEDGEDFNLGDALDSSNSMQTIQKTTTRRIVDGKVVSETNDTKVLRH

Variants of: B1
Conditions: with becn1_human BECN1, Q14457
Sequence of becn1_human BECN1, Q14457 (Q14457 whole entry): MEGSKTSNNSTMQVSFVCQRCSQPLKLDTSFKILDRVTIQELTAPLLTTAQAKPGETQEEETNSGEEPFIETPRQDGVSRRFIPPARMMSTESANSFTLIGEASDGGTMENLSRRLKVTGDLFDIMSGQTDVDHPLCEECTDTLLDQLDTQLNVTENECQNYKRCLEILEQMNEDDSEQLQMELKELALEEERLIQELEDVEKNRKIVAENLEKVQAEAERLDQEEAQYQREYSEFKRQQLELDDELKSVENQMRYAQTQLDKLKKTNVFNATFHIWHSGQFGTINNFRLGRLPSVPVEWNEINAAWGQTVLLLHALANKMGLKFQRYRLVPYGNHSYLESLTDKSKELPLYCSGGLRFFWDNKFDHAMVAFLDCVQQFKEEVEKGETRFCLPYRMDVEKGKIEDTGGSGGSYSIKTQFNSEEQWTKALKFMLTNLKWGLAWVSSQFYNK

effect of a mutation on the interaction | Variant
disrupting interaction strength | MSFTTRSTFSTNYRSLGSVQAPSYGARPVSSAAAVYAGAGGSGSRISVSRSTSFRGGMGSGGLATGIAGGLAGMGGIQNEKETMQSLNDRLASYLDRVRSLETENRRLESKIREHLEKKGPQVRDWSHYFKIIEDLRAQIFANTVDNARIVLQIDNARLAADDFRVKYETELAMRQSVENDIHGLRKVIDDTNITRLQLETEIEALKEELLFMKKNHEEEVKGLQAQIASSGLTVEVDAPKSQDLAKIMADIRAQYDELARKNREELDKYWSQQIEESTTVVTTQSAEVGAAETTLTELRRTVQSLEIDLDSMRNLKASLENSLREVEARYALQMEQLNGILLHLESELAQTRAEGQRQAQEYEALLNIKVKLEAEIATYRRLLEDGEDFNLGDALDSSNSMQTIQKTTTRRIVDGKVVSETNDTKVLRH [S34A]

Reference: IntAct's records for PubMed 23112296
